Measured values taken from patent publication US6699677 (CHEMOCENTRYX, dated 2004).

What was measured:
[1] = molecular target: T1, CCR7 on transfected mouse myeloma NSO cells (UniProt P32248 25-378, limits assumed); assay: adhesion of receptor-expressing NSO cells to immobilized stalkokine
T1 construct: whole, on cells; also called CCR7-NSO
T1 sequence (looked up): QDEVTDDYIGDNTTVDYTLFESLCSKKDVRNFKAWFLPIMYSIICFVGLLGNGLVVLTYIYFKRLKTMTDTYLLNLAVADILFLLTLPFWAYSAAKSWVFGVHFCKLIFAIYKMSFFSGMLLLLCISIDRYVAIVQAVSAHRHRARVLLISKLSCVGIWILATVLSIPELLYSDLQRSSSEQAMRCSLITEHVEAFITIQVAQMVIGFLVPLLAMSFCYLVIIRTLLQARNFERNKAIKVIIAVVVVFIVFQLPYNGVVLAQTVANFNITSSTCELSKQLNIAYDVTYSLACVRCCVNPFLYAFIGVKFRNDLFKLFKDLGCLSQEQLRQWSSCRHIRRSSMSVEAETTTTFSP

[2] = molecular target: T2, human CCR10 (CCX CKR) with N-terminal FLAG epitope, stably expressed on HEK293 cells (human, UniProt Q9NPB9 1-350); assay: homologous competition, radiolabeled TECK with cold TECK on cells
T2 construct: also called HEK293-CCR10 cells; CCR10-expressing cells
T2 sequence: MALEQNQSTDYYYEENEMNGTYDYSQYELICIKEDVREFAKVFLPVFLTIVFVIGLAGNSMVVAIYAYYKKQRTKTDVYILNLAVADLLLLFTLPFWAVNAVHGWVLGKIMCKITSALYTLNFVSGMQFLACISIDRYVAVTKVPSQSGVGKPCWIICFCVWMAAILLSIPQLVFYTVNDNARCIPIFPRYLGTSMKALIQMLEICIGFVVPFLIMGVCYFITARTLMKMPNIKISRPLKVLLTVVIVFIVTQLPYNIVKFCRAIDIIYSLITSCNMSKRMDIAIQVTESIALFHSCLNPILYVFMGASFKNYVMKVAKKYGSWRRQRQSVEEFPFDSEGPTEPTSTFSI

CCR4 on CEM cells [3] = molecular target: T3, CCR4 on CEM cells (UniProt P51679 1-360, limits assumed); assay: displacement of radiolabeled MDC or TARC from CEM cells expressing CCR4 by soluble MDC
T3 construct: whole, on cells; also called CEM cells expressing CCR4; CEM cells that express CCR4
T3 sequence (looked up): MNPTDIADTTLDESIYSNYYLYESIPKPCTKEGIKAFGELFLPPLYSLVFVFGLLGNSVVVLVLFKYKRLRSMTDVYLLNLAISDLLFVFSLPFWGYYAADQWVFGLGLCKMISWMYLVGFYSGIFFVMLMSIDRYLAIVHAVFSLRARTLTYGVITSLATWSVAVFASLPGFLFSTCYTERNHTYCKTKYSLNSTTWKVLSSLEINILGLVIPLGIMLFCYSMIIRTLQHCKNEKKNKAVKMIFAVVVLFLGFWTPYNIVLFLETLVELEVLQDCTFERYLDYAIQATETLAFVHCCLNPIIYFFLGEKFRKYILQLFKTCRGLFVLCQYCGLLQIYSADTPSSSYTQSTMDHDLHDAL

[4] = molecular target: T4, CCR4 on transfected mouse myeloma NSO cells (UniProt P51679 1-360, limits assumed); assay: preincubation of CCR4-NSO cells with 10 ug/ml soluble chemokine, then adhesion to immobilized MDC-FRAC or TARC-FRAC
T4 construct: whole, on cells; also called CCR4-NSO; CCR4 NSO cells
T4 sequence (looked up): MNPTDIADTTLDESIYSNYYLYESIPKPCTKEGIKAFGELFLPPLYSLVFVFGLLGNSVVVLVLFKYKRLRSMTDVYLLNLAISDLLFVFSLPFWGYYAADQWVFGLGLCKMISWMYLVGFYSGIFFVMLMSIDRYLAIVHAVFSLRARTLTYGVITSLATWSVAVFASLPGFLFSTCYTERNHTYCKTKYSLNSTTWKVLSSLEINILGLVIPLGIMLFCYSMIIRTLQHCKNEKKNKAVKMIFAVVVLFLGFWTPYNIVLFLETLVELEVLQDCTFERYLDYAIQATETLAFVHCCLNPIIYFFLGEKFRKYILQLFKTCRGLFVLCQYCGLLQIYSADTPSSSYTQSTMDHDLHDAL

[5] = molecular target: T2, human CCR10 (CCX CKR) with N-terminal …; assay: homologous competition, radiolabeled ELC with increasing unlabeled ELC on cells
[6] = molecular target: T4, CCR4 on transfected mouse myeloma NSO …; assay: adhesion of receptor-expressing NSO cells to immobilized stalkokine
CCR4 on CEM cells [7] = molecular target: T3, CCR4 on CEM cells; assay: displacement of radiolabeled MDC or TARC from CEM cells expressing CCR4 by stalkokine supernatant
[8] = molecular target: T2, human CCR10 (CCX CKR) with N-terminal …; assay: summary of Example 1; assay for this ligand not described
[9] = molecular target: T2, human CCR10 (CCX CKR) with N-terminal …; assay: adhesion of HEK293-CCR10 cells to stalkokine immobilized via anti-His antibody on chamber slides
[10] = molecular target: T5, CCR8 on transfected mouse myeloma NSO cells (UniProt P51685 1-355, limits assumed); assay: adhesion of receptor-expressing NSO cells to immobilized stalkokine
T5 construct: whole, on cells; also called CCR8-NSO

[11] = molecular target: T6, CCR1 on transfected mouse myeloma NSO cells (UniProt P32246 1-355, limits assumed); assay: as above
T6 construct: whole, on cells; also called CCR1-NSO
T6 sequence (looked up): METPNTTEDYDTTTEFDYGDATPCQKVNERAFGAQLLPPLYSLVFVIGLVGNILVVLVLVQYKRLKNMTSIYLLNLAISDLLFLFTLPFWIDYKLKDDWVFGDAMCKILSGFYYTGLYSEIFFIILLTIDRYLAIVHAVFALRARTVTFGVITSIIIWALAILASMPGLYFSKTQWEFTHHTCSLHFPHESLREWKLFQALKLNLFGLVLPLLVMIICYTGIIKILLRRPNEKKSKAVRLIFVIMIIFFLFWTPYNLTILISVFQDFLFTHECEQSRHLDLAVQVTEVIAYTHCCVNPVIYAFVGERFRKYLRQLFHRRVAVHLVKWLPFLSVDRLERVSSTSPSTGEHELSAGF

T5 sequence (P51685 whole entry): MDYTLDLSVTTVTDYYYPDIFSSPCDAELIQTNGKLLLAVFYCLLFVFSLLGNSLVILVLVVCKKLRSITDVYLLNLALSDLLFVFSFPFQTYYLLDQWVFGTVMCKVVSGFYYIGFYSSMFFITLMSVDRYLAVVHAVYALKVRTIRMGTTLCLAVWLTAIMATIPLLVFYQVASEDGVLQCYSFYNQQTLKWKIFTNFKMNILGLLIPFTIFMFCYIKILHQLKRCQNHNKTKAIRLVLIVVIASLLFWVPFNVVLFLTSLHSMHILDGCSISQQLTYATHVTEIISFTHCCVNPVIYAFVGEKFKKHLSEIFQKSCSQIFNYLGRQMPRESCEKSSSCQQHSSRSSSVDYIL

B1: SLC-FRAC (SLC stalkokine) (ligand, human, not shown: small tags and cut ends)
chain: SDGGAQDCCLKYSQRKIPAKVVRSYRKQEPSLGCSIPAILFLPRKRSQAELCADPKELWVQQLMQHLDKTPSPQKPAQGCRKDRGASKTGKKGKGSKGCKRTERSQTPKGPEFGGTFEKQIGEVKPRTTPAAGGMDESVVLEPEATGESSSLEPTPSSQEAQRALGTSPELPTGVTGSSGTRLPPTPKAQDGGPVGTELFRVPPVSTAATWQSSAPHQPGPSLWAEAKTSEAPSTQDPSTQASTASSPAPEENAPSEGQRVWGQGQSPRPENSLEREEMGPVPAHTDAFQDWGPGSMAHVSVVPVSSEGTPSREPVASGSWTPKAEEPIHATMDPQRLGVLITPVPDAQA
notes: mature; also called SLC (stalkokine form); 6Ckine
B1: no binding [1].

B2: TECK, soluble recombinant native form chemokine (ligand, UniProt O15444 24-150, looked up)
chain: QGVFEDCCLAYHYPIGWAVLRRAWTYRIQEVSGSCNLPAAIFYLPKRHRKVCGNPKSREVQRAMKLLDARNKVFAKLHHNTQTFQAGPHAVKKLSSGNSKLSSSKFSNPISSSKRNVSLLISANSGL
notes: mature; Tracer was 125I-labeled TECK from Amersham; also called soluble TECK; cold TECK
B2: binds [2].

B3: MDC, soluble chemokine (ligand, human, UniProt O00626 25-93, looked up)
chain: GPYGANMEDSVCCRDYVRYRLPLRVVKHFYWTSDSCPRPGVVLLTFRDKEICADPRVPWVKMILNKLSQ
notes: Also used radiolabeled as tracer on CEM cells; also called MDC-CK; soluble MDC
B3: binds (CCR4 on CEM cells [3]); binds [4].

B4: ELC, soluble recombinant native form chemokine (ligand, UniProt Q99731 22-98, looked up)
chain: GTNDAEDCCLSVTQKPIPGYIVRNFHYLLIKDGCRVPAVVFTTLRGRQLCAPPDQPWVERIIQRLQRTSAKMKRRSS
notes: mature; also called soluble ELC; soluble native ELC
B4: binds [5].

B5: TARC-FRAC (stalkokine with a fractalkine stalk and a TARC ligand domain) (ligand, human, not shown: small tags and cut ends)
chain: ARGTNVGRECCLEYFKGAIPLRKLKTWYQTSEDCSRDAIVFVTVQGRAICSDPNNKRVKNAVKYLQSLERSEFGGTFEKQIGEVKPRTTPAAGGMDESVVLEPEATGESSSLEPTPSSQEAQRALGTSPELPTGVTGSSGTRLPPTPKAQDGGPVGTELFRVPPVSTAATWQSSAPHQPGPSLWAEAKTSEAPSTQDPSTQASTASSPAPEENAPSEGQRVWGQGQSPRPENSLEREEMGPVPAHTDAFQDWGPGSMAHVSVVPVSSEGTPSREPVASGSWTPKAEEPIHATMDPQRLGVLITPVPDAQA
notes: mature; Used as cell supernatant, soluble (displacement, calcium flux) or immobilized through anti-His antibody (adhesion); also called TARC-SK; TARC-Stalkokine
B5: binds [6]; binds (CCR4 on CEM cells [7]).

B6: TARC, soluble chemokine (ligand, human, UniProt Q92583 24-94, looked up)
chain: ARGTNVGRECCLEYFKGAIPLRKLKTWYQTSEDCSRDAIVFVTVQGRAICSDPNNKRVKNAVKYLQSLERS
notes: Also used radiolabeled as tracer on CEM cells; also called soluble TARC; radiolabeled TARC
B6: binds [4].

B7: MDC-FRAC (stalkokine with a fractalkine stalk and an MDC ligand domain) (ligand, human, not shown: small tags and cut ends)
chain: GPYGANMEDSVCCRDYVRYRLPLRVVKHFYWTSDSCPRPGVVLLTFRDKEICADPRVPWVKMILNKLSQEFGGTFEKQIGEVKPRTTPAAGGMDESVVLEPEATGESSSLEPTPSSQEAQRALGTSPELPTGVTGSSGTRLPPTPKAQDGGPVGTELFRVPPVSTAATWQSSAPHQPGPSLWAEAKTSEAPSTQDPSTQASTASSPAPEENAPSEGQRVWGQGQSPRPENSLEREEMGPVPAHTDAFQDWGPGSMAHVSVVPVSSEGTPSREPVASGSWTPKAEEPIHATMDPQRLGVLITPVPDAQA
notes: mature; Used as cell supernatant, soluble (displacement, calcium flux) or immobilized through anti-His antibody (adhesion); also called MDC-SK; MDC-Stalkokine
B7: binds [6]; binds (CCR4 on CEM cells [7]).

B8: vMIPII (ligand)
chain: GDTLGASWHRPDKCCLGYQKRPLPQVLLSSWYPTSQLCSKPGVIFLTKRGRQVCADKSKDWVKKLMQQLPVTAR
B8: binds [8].

B9: ELC-stalkokine (ELC ligand domain, human fractalkine mucin stalk, myc epitope and poly-histidine) (ligand, not shown: small tags and cut ends)
chain: GTNDAEDCCLSVTQKPIPGYIVRNFHYLLIKDGCRVPAVVFTTLRGRQLCAPPDQPWVERIIQRLQRTSAKMKRRSSEFGGTFEKQIGEVKPRTTPAAGGMDESVVLEPEATGESSSLEPTPSSQEAQRALGTSPELPTGVTGSSGTRLPPTPKAQDGGPVGTELFRVPPVSTAATWQSSAPHQPGPSLWAEAKTSEAPSTQDPSTQASTASSPAPEENAPSEGQRVWGQGQSPRPENSLEREEMGPVPAHTDAFQDWGPGSMAHVSVVPVSSEGTPSREPVASGSWTPKAEEPIHATMDPQRLGVLITPVPDAQA
notes: mature; also called ELC-SK; ELC-FRAC
B9: binds [1]; binds [9].

B10: I309-FRAC (I309 stalkokine) (ligand, human, not shown: small tags and cut ends)
chain: KSMQVPFSRCCFSFAEQEIPLRAILCYRNTSSICSNEGLIFKLKRGKEACALDTVGWVQRHRKMLRHCPSKRKEFGGTFEKQIGEVKPRTTPAAGGMDESVVLEPEATGESSSLEPTPSSQEAQRALGTSPELPTGVTGSSGTRLPPTPKAQDGGPVGTELFRVPPVSTAATWQSSAPHQPGPSLWAEAKTSEAPSTQDPSTQASTASSPAPEENAPSEGQRVWGQGQSPRPENSLEREEMGPVPAHTDAFQDWGPGSMAHVSVVPVSSEGTPSREPVASGSWTPKAEEPIHATMDPQRLGVLITPVPDAQA
notes: mature; also called I309 (stalkokine form); 1309-FRAC
B10: binds [10].

B11: MCP3-FRAC (MCP3 stalkokine) (ligand)
chain: not shown
notes: mature; also called MCP3 (stalkokine form); MCP3 tethered ligand; not shown: polylinker residues
B11: binds [11].
